According to PMC4391858:

Key:
[1] = confocal immunocytochemistry of coexpressed DLL1, CHO cells; conditions: glycan lost; control: wild type DLL3
[2] = cycloheximide chase, Western blot, CHO cells; conditions: glycan lost; control: wild type DLL3

B1: Delta-like 3 (DLL3): DLL3-S286A,T403V (protein)
parent chain: MVSLQVSPLSQTLILAFLLPQALPAGVFELQIHSFGPGPGLGTPRSPCNARGPCRLFFRVCLKPGVSQEATESLCALGAALSTSVPVYTEHPGESAAALPLPDGLVRVPFRDAWPGTFSLVIETWREQLGEHAGGPAWNLLARVVGRRRLAAGGPWARDVQRTGTWELHFSYRARCEPPAVGAACARLCRSRSAPSRCGPGLRPCTPFPDECEAPSVCRPGCSPEHGYCEEPDECRCLEGWTGPLCTVPVSTSSCLNSRVPGPASTGCLLPGPGPCDGNPCANGGSCSETSGSFECACPRGFYGLRCEVSGVTCADGPCFNGGLCVGGEDPDSAYVCHCPPGFQGSNCEKRVDRCSLQPCQNGGLCLDLGHALRCRCRAGFAGPRCEHDLDDCAGRACANGGTCVEGGGSRRCSCALGFGGRDCRERADPCASRPCAHGGRCYAHFSGLVCACAPGYMGVRCEFAVRPDGADAVPAAPRGLRQADPQRFLLPPALGLLVAAGLAGAALLVIHVRRRGPGQDTGTRLLSGTREPSVHTLPDALNNLRLQDGAGDGPSSSADWNHPEDGDSRSIYVIPAPSIYAREDWLIQVLF
- localisation_or_trafficking, other: cells with DLL1 relocalised outside Golgi [1]: decreases, the intracellular DLL1 staining did not change obviously (10 out of 14 cells
- degradation_or_half_life [2]: no change
